Reference: patent publication US11872261B2, “Lipoprotein targeting protease inhibitors and uses” (The United States of America, as represented by the …, priority 2016, dated 2024)
No end group written: not given here. PEG2000 = poly(ethylene) glycol, 2000; VitE = vitamin E (alpha tocopherol)

How the values were obtained:
reconstituted HDL (rHDL) = biological target: T1, reconstituted HDL (rHDL) (Homo sapiens, UniProt P02647); assay: Binding of A1AT to reconstituted HDL, size exclusion chromatography; conditions: gel filtration profile, HDL containing apoA-I and phospholipids
T1 construct: Reconstituted HDL was prepared by cholate dialysis method, using human purified apolipoprotein A-I; from tissue
T1 sequence (P02647 25-267): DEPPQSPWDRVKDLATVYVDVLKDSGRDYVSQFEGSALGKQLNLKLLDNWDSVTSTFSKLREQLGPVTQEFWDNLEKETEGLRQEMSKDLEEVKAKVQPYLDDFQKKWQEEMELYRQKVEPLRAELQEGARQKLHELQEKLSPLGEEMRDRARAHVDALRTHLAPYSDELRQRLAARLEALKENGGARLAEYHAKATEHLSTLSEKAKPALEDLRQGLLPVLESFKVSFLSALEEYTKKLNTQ
Description: FIG. 7A-7B. Alpha-1-antitrypsin has reduced anti-elastase activity when bound to reconstituted HDL. Reconstituted HDL (rHDL) were prepared from apoA-I and phospholipids by cholate dialysis and then co-incubated with alpha-1-antitrypsin (A1AT) to generate A1AT enriched rHDL. (FIG. 7A) Size exclusion chromatography on tandem Superdex 200 columns was used to isolate HDL bound A1AT from lipid free protein. (FIG. 7B) The ability of lipid free and rHDL bound A1AT to inhibit neutrophil elastase (NE) activity was measured by fluorometric assay.
Reconstituted HDL was prepared by cholate dialysis method, using human purified apolipoprotein A-I and 1-palmitoyl-2-oleoyl-sn-glycero-3-phosphocholine (Avanti) as previously described (Matz & Jonas, J Biol Chem 257: 4535-4540, 1982). Native human HDL was isolated from plasma by sequential density gradient ultracentrifugation (Chapman et al., J Lipid Res 22: 339-358, 1981). Reconstituted or native HDL was co-incubated with alpha-1-antitrypsin protein (Human, Sigma Aldrich) overnight at 37° C. Unbound A1AT was removed by filtration, using Amicon Ultra 100 kDa centrifugal filter units (Millipore). Elastase activity assays were performed with the EnzChek® elastase assay kit (Life Technologies). […]

J774 mouse macrophages = assay: Elastase induced TNF-α production by J774 macrophages; assay type: cell-based
Description: (§1) FIG. 9A-9E. Alpha-1-antitrypsin enriched HDL prevents elastase induced TNF-α production by macrophages. (FIG. 9A) J774 mouse macrophages treated with increasing amounts of porcine pancreatic elastase (PPE) or heat inactivated elastase for 4 hours, TNF-α in the culture media was measured by ELISA. (FIG. 9B) J774 cells pretreated with PBS, isolated human HDL (nHDL), the same HDL enriched with alpha-1-antitrypsin (A1AT nHDL), or lipid free A1AT for 1 hour prior to PPE addition. (FIG. 9C) The ability of each of the cell treatments to inhibit elastase activity was measured in a cell-free assay. (FIG. 9D) Treatments were pre-incubated with PPE prior to addition to cells and TNF-α was measured in the culture media after 4 hours. (FIG. 9E) J774 cells were pre-incubated with each treatment for 1 hour; cells were then washed twice with PBS and placed in fresh media containing PPE and TNF-α was measured in the culture media after 4 hours. All experiments were repeated at least 3 times and were done in triplicates. Treatments were compared using one-way ANOVA and Tukey's multiple comparisons test, p<0.05 was considered significant. The letters above each treatment indicate statistical significance; within each graph, bars bearing different letters were statistically different from each other.
J774 mouse macrophages were used to examine the potential functional role of alpha-1-antitrypsin enriched HDL in inflammation. For these experiments, cells were plated in 12-well culture plates at a density of 1×10^5 cells/well two days prior to the experiment. Cells were washed twice with PBS and placed in serum-free media for 1 hour prior to addition of treatment. Treatments (PBS, nHDL, A1AT-HDL or A1AT) were added to serum-free culture media: HDL protein was matched for nHDL and A1AT-nHDL at a final concentration of 200 μg/mL. A1AT concentration was matched between free A1AT and A1AT-nHDL at a final concentration of 2 μM. Cells were then incubated with elastase (porcine pancreas, Sigma Aldrich, 500 nM) for 4 hours and media was collected and centrifuged at 3,000×g for 5 min to pellet any loose cells or debris and supernatant was transferred to fresh tubes and stored at −80° C. until further analysis. Elisa assays for mouse TNF-α (BioLegend) were performed on cell culture media.
Next, J774 cells were pre-incubated with PBS, native HDL (nHDL), A1AT enriched nHDL, or lipid-free A1AT for 1 hour prior to the addition of elastase to the culture media to allow for […] of A1AT.

[1] = biological target: T2, porcine pancreatic elastase (PPE) (Sus scrofa, UniProt P00772); assay: Elastase inhibition of the cell treatments in a cell-free assay; assay type: biochemical; conditions: same treatments as for J774 cells
T2 construct: incubated with elastase (porcine pancreas, Sigma Aldrich, 500 nM) for 4 hours; purchased Sigma Aldrich; host or cells: porcine pancreas
T2 sequence (P00772 27-266): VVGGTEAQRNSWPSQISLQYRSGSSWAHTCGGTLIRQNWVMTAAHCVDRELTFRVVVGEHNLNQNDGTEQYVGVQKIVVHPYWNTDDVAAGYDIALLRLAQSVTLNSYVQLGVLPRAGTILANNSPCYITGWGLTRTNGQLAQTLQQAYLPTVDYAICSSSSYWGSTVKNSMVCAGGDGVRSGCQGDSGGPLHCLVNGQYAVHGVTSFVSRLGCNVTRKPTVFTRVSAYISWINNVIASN
Description: as §1, with “other. […]” for “other.”

elastase = biological target: T3, elastase (Sus scrofa, UniProt P00772); assay: EnzChek elastase inhibitor assay (Example 3); assay type: biochemical; conditions: EnzChek Elastase Assay Kit
T3 construct: purchased Molecular Probes E-12056
T3 sequence (P00772 27-266): as above
Text: Elastase Inhibitor Assay.

HDL = assay: E-AAPV coincubated with purified human HDL, HDL repurified and tested for elastase inhibitor activity; assay type: binding; conditions: coincubated 30 minutes at 37° C., HDL repurified by size-exclusion chromatography
Description: Isolated Human HDL was co-incubated with the E-AAPV (SEQ ID NO: 5) peptide for 30 minutes at 37° C. and then HDL was reisolated by FPLC to remove unbound E-AAPV (SEQ ID NO: 5). The HDL was then tested for elastase inhibition activity and compared to control HDL which was coincubated with PBS (no peptide) and repurified. Sampes were matched based on phospholipid content.
E-AAPV peptide binds HDL and confers elastase inhibitor activity. The reaction product (E-AAPV; SEQ ID NO: 5) was coincubated with purified human HDL for 30 minutes at 37° C. followed by repurification of HDL by size-exclusion chromatography to remove unbound E-AAPV (SEQ ID NO: 5) peptide. The repurified HDL was then tested for elastase inhibitor activity using the assay described above.
E-AAPV (SEQ ID NO: 5)-loaded HDL was compared to the same HDL that was coincubated with buffer only (No peptide). The HDL and HDL+E-AAPV (SEQ ID NO: 5) were normalized based on phospholipid content, determined by colorimetric assay, prior to measurement of elastase activity.

In the case of “A1AT: alpha-1-antitrypsin protein (Human, Sigma Aldrich), serine protease inhibitor”, the “association of A1AT with discoidal reconstituted HDL” value (reconstituted HDL (rHDL)) is reported as “a significant fraction of A1AT associates with HDL”, the “proteolytic degradation of A1AT in cell culture media, western blot” value (J774 mouse macrophages; J774 cell culture media) is reported as “no evidence of proteolytic degradation” and the “inhibition of elastase induced TNF-α production, treatment pre-incubated with elastase” value (J774 mouse macrophages; pre-incubated with elastase prior to addition to the cells) is reported as “readily able to inhibit elastase induced TNF-α production”. The “protection against elastase induced TNF-α production” value (J774 mouse macrophages; pretreated 1 hour prior to elastase, A1AT 2 μM) was “no significant protection”, the “protection against elastase induced TNF-α production after removal of treatment” value (J774 mouse macrophages; pretreated 1 hour, cells washed, fresh media containing elastase) was “no effect” and the “inhibition of elastase activity in a cell-free system” value [1] was “significant anti-elastase activity”.

In the case of “VitE-PEG-Ala-Ala-Pro-Val ({VitE-PEG2000}-AAPV) [E-AAPV, vitamin E linked to the A1AT linear peptide AAPV via a PEG2000 linker]”, the elastase inhibitor activity (elastase) is reported as “does not affect elastase inhibition activity”, the elastase inhibitor activity (elastase; listed as VitE-PEG-AAPV) is reported as “retains elastase inhibitor activity” and the “binding to HDL” value (HDL) is reported as “binds HDL”.
